Data taken from US20050074826A1 (published 2005).

B1: CCX-CKR2, mouse (on E13 fetal liver cells) (receptor, UniProt P56485 1-362, looked up)
chain: MDVHLFDYAEPGNYSDINWPCNSSDCIVVDTVQCPTMPNKNVLLYTLSFIYIFIFVIGMIANSVVVWVNIQAKTTGYDTHCYILNLAIADLWVVITIPVWVVSLVQHNQWPMGELTCKITHLIFSINLFGSIFFLACMSVDRYLSITYFTGTSSYKKKMVRRVVCILVWLLAFFVSLPDTYYLKTVTSASNNETYCRSFYPEHSIKEWLIGMELVSVILGFAVPFTIIAIFYFLLARAMSASGDQEKHSSRKIIFSYVVVFLVCWLPYHFVVLLDIFSILHYIPFTCQLENVLFTALHVTQCLSLVHCCVNPVLYSFINRNYRYELMKAFIFKYSAKTGLTKLIDASRVSETEYSALEQNTK
notes: whole, on cells; also called SDF-1 receptor on E13 fetal liver cells
B2: CXCR4, human (receptor, UniProt P61073 1-352, looked up)
chain: MEGISIYTSDNYTEEMGSGDYDSMKEPCFREENANFNKIFLPTIYSIIFLTGIVGNGLVILVMGYQKKLRSMTDKYRLHLSVADLLFVITLPFWAVDAVANWYFGNFLCKAVHVIYTVNLYSSVLILAFISLDRYLAIVHATNSQRPRKLLAEKVVYVGVWIPALLLTIPDFIFANVSEADDRYICDRFYPNDLWVVVFQFQHIMVGLILPGIVILSCYCIIISKLSHSKGHQKRKALKTTVILILAFFACWLPYYIGISIDSFILLEIIKQGCEFENTVHKWISITEALAFFHCCLNPILYAFLGAKFKTSAQHALTSVSRGSSLKILSKGKRGGHSSVSTESESSSFHSS
notes: whole, on cells; also called CXCR4 on CEM-NKr cells; leukocyte CXCR4
B3: mouse I-TAC (ligand, UniProt Q9JHH5 22-100, looked up)
chain: FLMFKQGRCLCIGPGMKAVKMAEIEKASVIYPSNGCDKVEVIVTMKAHKRQRCLDPRSKQARLIMQAIEKKNFLRRQNM
notes: also called mI-TAC; I-TAC (mouse protein)
B4: human I-TAC (ligand, UniProt O14625 22-94, looked up)
chain: FPMFKRGRCLCIGPGVKAVKVADIEKASIMYPSNNCDKIEVIITLKENKGQRCLNPKSKQARLIIKKVERKNF
notes: also called hI-TAC; CXCL11
B5: MIG (ligand, UniProt Q07325 23-125, looked up)
chain: TPVVRKGRCSCISTNQGTIHLQSLKDLKQFAPSPSCEKIEIIATLKNGVQTCLNPDSADVKELIKKWEKQVSQKKKQKNGKKHQKKKVLKVRKSQRSRQKKTT
notes: also called monokine induced by gamma interferon; CXCR3 ligand MIG

Columns and labels:
[1] = target: T1, human SDF-1α (human, UniProt P48061-2 22-89); test: radioligand binding on mouse E13 fetal liver cells
T1 construct: also called hSDF-1α; SDF-1a
T1 sequence (P48061 22-89 limits assumed): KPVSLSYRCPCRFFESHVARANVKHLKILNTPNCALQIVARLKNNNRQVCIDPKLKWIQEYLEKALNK

[2] = target: T1, human SDF-1α; test: DisplaceMax displacement of 125I SDF-1α on CEM-NKr cells (CXCR4)
[3] = target: B1; test: competition with radiolabeled human SDF-1 on mouse E13 fetal liver cells
[4] = target: T2, CCX-CKR2 (RDC1), human (human, UniProt P25106 1-362); test: homologous competition with 125I I-TAC on MCF-7 cells, medium alone
T2 construct: also called CCX-CR2; SDF1 receptor on MCF-7 cells
T2 sequence (P25106 whole entry): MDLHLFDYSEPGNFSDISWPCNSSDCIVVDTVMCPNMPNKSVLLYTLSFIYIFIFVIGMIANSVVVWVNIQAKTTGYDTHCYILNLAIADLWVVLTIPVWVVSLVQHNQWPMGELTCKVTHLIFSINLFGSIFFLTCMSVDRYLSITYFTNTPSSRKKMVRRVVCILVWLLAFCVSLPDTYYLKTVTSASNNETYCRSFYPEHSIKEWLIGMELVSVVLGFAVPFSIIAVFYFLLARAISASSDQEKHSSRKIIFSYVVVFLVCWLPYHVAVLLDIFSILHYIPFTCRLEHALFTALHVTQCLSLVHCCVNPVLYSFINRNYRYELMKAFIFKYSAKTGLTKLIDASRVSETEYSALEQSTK

[5] = target: B2; test: dose response competition with 125I SDF-1α on CEM-NKr cells (CXCR4)
[6] = target: T2, CCX-CKR2 (RDC1), human; test: competition with 125I I-TAC on MCF-7 cells

B1: binds [1].

B2: binds [2].

B3: binds [3].

For B4, the IC50 [4] was 1 nM, the binding result [3] was “binds” and the binding result [5] was “no binding”.

B5: no binding [6].
